{
  "source": "the supplement of paper PMC12042874",
  "note": "± gives the uncertainty stated by the source.",
  "data": [
    {"assay": "amyloid nucleation score (Sup35N fusion, yeast selection) (log enrichment); library NNK3; higher = more nucleation; inactive = no reads after selection", "procedure,_shortened": "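Libraries of peptides of 20 random codons fused to Sup35N were expressed in psi-negative yeast and induced 24 hours with 100 μM copper sulfate. Selection was 7 days at 30°C on medium lacking adenine and uracil, and plasmid inserts were Illumina-sequenced before and after selection. Nucleation score is the DiMSum log enrichment of output over input reads, centred on the mode score of non-aggregating sequences, and sequences with under 100 input reads were left out.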", "values": [
      {"substance": "YSMFN", "amyloid nucleation score": "inactive"},
      {"substance": "PVSICQFIVSMANFDLCSQG", "amyloid nucleation score": "1.93 ± 0.068"},
      {"substance": "TFSNNYPFSRWGCFSVLAV", "amyloid nucleation score": "inactive"},
      {"substance": "MCNMCR", "amyloid nucleation score": "inactive"},
      {"substance": "FLVPTLHYYLGRWQKKPMLY", "amyloid nucleation score": "inactive"},
      {"substance": "CNHLSSTCFT", "amyloid nucleation score": "inactive"},
      {"substance": "WSFRNVVSVGMWYLCSDRIG", "amyloid nucleation score": "inactive"},
      {"substance": "GYCNESTVWYDS", "amyloid nucleation score": "inactive"},
      {"substance": "GISMRRNFSLNKCCSAQSLF", "amyloid nucleation score": "inactive"},
      {"substance": "VSRVSLKRRYALM", "amyloid nucleation score": "-1.13 ± 2.5"},
      {"substance": "ANRLC", "amyloid nucleation score": "inactive"},
      {"substance": "YFGDPSSRMKCFYPYVSVCR", "amyloid nucleation score": "inactive"},
      {"substance": "AALVGLRCIAWNYCDTRKRI", "amyloid nucleation score": "inactive"},
      {"substance": "NAFNL", "amyloid nucleation score": "inactive"},
      {"substance": "TKFIMKRLLVERVSCFLRSH", "amyloid nucleation score": "inactive"},
      {"substance": "FTMASLRIKDIFWLLTNLTW", "amyloid nucleation score": "inactive"},
      {"substance": "HLKCPRERLT", "amyloid nucleation score": "inactive"},
      {"substance": "LFLMIFNARNCVRYGIEGPS", "amyloid nucleation score": "inactive"},
      {"substance": "RSTDTFWACCSDKTLSLWSA", "amyloid nucleation score": "inactive"},
      {"substance": "TEYTILLASRNLFPTR", "amyloid nucleation score": "0.598 ± 0.25"},
      {"substance": "HRFSVWSEYCILIFRLQHRP", "amyloid nucleation score": "inactive"},
      {"substance": "NRINLDSSPLKGYFLINTIT", "amyloid nucleation score": "inactive"},
      {"substance": "HGFLFCGFSNYKCVQGNMTF", "amyloid nucleation score": "inactive"},
      {"substance": "TRKMLLVVSKYVMTPYGFGL", "amyloid nucleation score": "inactive"},
      {"substance": "CYWPVCYSFGKLQACFYFEI", "amyloid nucleation score": "inactive"},
      {"substance": "SMCRTPILQPIAVQNVSMGR", "amyloid nucleation score": "inactive"},
      {"substance": "YSKRSLDYI", "amyloid nucleation score": "inactive"},
      {"substance": "YLLLDEVRSKYCWGISCTGY", "amyloid nucleation score": "inactive"},
      {"substance": "PSSFKMY", "amyloid nucleation score": "inactive"},
      {"substance": "CVFLKKPEKMQLLASSFNS", "amyloid nucleation score": "inactive"},
      {"substance": "VLFSGFFYLSDNYKLMGFVH", "amyloid nucleation score": "inactive"},
      {"substance": "KCSNLVAFVI", "amyloid nucleation score": "inactive"},
      {"substance": "ATCLLIGFGPWMSPAG", "amyloid nucleation score": "inactive"},
      {"substance": "GALSYKSKSWRS", "amyloid nucleation score": "inactive"},
      {"substance": "LHQCRDKL", "amyloid nucleation score": "inactive"},
      {"substance": "MKCCFSTLIPAKYNLDTLIL", "amyloid nucleation score": "inactive"},
      {"substance": "VLCCLDYIYPVGALGYYACI", "amyloid nucleation score": "inactive"},
      {"substance": "MVQTKMSQFKSFEFARVMWH", "amyloid nucleation score": "inactive"},
      {"substance": "LTRRSRLWHMSSYTWKKDVI", "amyloid nucleation score": "0.084 ± 0.5"},
      {"substance": "VVILWGR", "amyloid nucleation score": "inactive"},
      {"substance": "AAETLTRSWLLRSARLMKDG", "amyloid nucleation score": "-0.233 ± 1.4"},
      {"substance": "GYTRVRVGCYVTVRKFWSMT", "amyloid nucleation score": "-0.14 ± 1"},
      {"substance": "FEWLMGRHLYISLRLHMRRS", "amyloid nucleation score": "inactive"},
      {"substance": "PRFMKVRRWYSNLM", "amyloid nucleation score": "inactive"},
      {"substance": "IDRSLLSGFSNLHICSICCT", "amyloid nucleation score": "1.2 ± 0.12"},
      {"substance": "VFMIVRQEGSSDFFFDFSSV", "amyloid nucleation score": "1.42 ± 0.11"},
      {"substance": "TLFNLFRVKLIDEPNLAKWL", "amyloid nucleation score": "inactive"},
      {"substance": "ISYNTVRYRYGFVYNRLLPW", "amyloid nucleation score": "inactive"},
      {"substance": "CKTHQVSYAYLC", "amyloid nucleation score": "inactive"},
      {"substance": "LAAQIMNSLCRLELSQALSR", "amyloid nucleation score": "inactive"},
      {"substance": "VVHSGWKSLDNLPHLRDVVT", "amyloid nucleation score": "inactive"},
      {"substance": "GVVVWYSGDWTECMVVNRCD", "amyloid nucleation score": "0.78 ± 0.12"},
      {"substance": "LVFKLAEMCADPIKQRCCGL", "amyloid nucleation score": "inactive"},
      {"substance": "MMLDTWVTYPMREKLDAYRV", "amyloid nucleation score": "inactive"},
      {"substance": "MSTLVTMYHYGVGGCVWFYL", "amyloid nucleation score": "inactive"},
      {"substance": "RALVFIIQVVFRFPCTAGIL", "amyloid nucleation score": "inactive"},
      {"substance": "SVRRLGGLLLYCNHFMFD", "amyloid nucleation score": "inactive"},
      {"substance": "VWTGWSKRGSSVA", "amyloid nucleation score": "inactive"},
      {"substance": "CLRRTLEPW", "amyloid nucleation score": "inactive"},
      {"substance": "KTLWHEVRGDDSNVSSCWFS", "amyloid nucleation score": "inactive"},
      {"substance": "MVDVNLAKRNGMNQSLHGNS", "amyloid nucleation score": "inactive"},
      {"substance": "NCTFAGLAMFGNILN", "amyloid nucleation score": "inactive"},
      {"substance": "SIFHLTSKVYISDWFC", "amyloid nucleation score": "2 ± 0.088"},
      {"substance": "KFLLTWK", "amyloid nucleation score": "inactive"},
      {"substance": "YKVILTCSKC", "amyloid nucleation score": "inactive"}
    ]}
  ]
}
